Reference: patent US20110065652A1
Bridge positions count the residues as written; N and C are the ends. Square brackets hold non-standard residues; d marks the D form. Orn = NCCC[C@H](N)C(=O)O; Dab = NCC[C@H](N)C(=O)O

Assays:
[1] = target: human recombinant melanocortin-4 receptor (hMC4-R) (human) (UniProt P32245); experiment: competitive binding against [I125]-NDP-α-MSH, HEK-293 hMC4-R membranes
[2] = target: human recombinant melanocortin-3 receptor (hMC3-R) (human) (UniProt P41968); experiment: competitive binding against labelled NDP-α-MSH (I125 or Eu), HEK-293 hMC3-R membranes
human recombinant melanocortin-3 receptor (hMC3-R) (human), sequence (P41968 whole entry): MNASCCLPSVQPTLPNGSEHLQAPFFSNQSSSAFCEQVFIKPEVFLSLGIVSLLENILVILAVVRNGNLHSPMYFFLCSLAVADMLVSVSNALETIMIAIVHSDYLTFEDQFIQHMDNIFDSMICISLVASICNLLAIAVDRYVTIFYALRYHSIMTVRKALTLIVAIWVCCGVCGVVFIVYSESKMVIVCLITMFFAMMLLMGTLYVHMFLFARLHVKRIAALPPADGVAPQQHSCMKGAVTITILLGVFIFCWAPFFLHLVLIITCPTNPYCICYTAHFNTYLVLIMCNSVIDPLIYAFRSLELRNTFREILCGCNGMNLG

[3] = target: melanocortin-1 receptor (MC1-R), endogenous in B-16 mouse melanoma cells (mouse) (UniProt Q01727); experiment: competitive binding against [I125]-NDP-α-MSH, B-16 mouse melanoma membranes
melanocortin-1 receptor (MC1-R), endogenous in B-16 mouse melanoma cells (mouse), sequence (Q01727 whole entry): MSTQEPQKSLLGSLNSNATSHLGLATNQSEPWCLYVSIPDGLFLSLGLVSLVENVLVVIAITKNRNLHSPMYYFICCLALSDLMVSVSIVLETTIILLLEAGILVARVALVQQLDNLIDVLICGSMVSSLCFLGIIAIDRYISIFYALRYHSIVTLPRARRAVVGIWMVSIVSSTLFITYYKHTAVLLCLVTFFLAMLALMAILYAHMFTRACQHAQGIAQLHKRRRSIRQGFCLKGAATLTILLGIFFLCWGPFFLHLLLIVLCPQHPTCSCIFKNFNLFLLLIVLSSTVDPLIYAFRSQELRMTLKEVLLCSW

[4] = target: human recombinant melanocortin-5 receptor (hMC5-R) (human) (UniProt P33032); experiment: competitive binding against Eu-NDP-α-MSH, HEK-293 hMC5-R membranes
human recombinant melanocortin-5 receptor (hMC5-R) (human), sequence (P33032 whole entry): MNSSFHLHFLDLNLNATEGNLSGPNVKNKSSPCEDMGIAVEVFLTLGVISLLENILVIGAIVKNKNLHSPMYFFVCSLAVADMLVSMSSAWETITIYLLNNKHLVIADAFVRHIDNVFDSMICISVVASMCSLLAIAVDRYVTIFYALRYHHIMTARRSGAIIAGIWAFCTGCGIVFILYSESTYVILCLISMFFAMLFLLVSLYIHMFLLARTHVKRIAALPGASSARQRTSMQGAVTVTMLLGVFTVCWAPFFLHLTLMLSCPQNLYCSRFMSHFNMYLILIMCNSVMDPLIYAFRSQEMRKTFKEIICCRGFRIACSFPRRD

[5] = target: human recombinant melanocortin-4 receptor (hMC4-R) (human) (UniProt P32245); experiment: cell-based or functional assay

human recombinant melanocortin-4 receptor (hMC4-R) (human), sequence (P32245 whole entry): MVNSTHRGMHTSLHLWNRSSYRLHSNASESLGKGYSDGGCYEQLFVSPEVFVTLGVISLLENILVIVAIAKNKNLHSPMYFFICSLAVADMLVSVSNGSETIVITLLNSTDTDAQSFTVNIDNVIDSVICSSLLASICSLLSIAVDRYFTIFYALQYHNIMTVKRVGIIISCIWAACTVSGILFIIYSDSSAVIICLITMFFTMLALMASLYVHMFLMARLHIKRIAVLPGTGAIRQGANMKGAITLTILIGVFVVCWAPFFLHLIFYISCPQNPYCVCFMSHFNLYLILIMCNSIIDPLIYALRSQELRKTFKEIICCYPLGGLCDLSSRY

Binder | Ki [1] | Ki [2] | Ki [3] | Ki [4] | EC50 (cAMP accumulation in HEK-293 cells expressing hMC4-R) [5] | intrinsic activity (cAMP, NDP-α-MSH is 100%) [5]
Ac-RE[Dab][dF]RW[Orn]-NH2 (lactam 2-7; also: TFA salt) [cyclic peptide of Example 8.3, Ac-Arg-cyclo(Glu-Dab-D-Phe-Arg-Trp-Orn)-NH2] | 0.65 nM | 74 nM | 1 nM | 300 nM | 0.3 nM | 94%
Ac-RE[Dab][dF]RW[Orn]-OH (lactam 2-7; also: acetate and TFA salts) [cyclic peptide of Example 8.4, Ac-Arg-cyclo(Glu-Dab-D-Phe-Arg-Trp-Orn)-OH] | 8 nM | 410 nM | 4 nM | 2370 nM | – | 91%
